Laboratory results as given in publication PMC11662665, “Phosphorylation-mediated disassembly of C-terminal binding protein 2 tetramer impedes epigenetic silencing of pluripotency in mouse embryonic stem cells” (Nucleic Acids Research, 2024).
One block for each binder: values may come before it.

Legend:
GST-CTBP2 = target: T1, GST-CTBP2 (UniProt P56546 1-445); assay: pull-down; recombinant truncated FLAG-Suz12 and GST-CTBP2 incubated in vitro; pull down with glutathione Sepharose; details: both partners purified
T1 construct: also called GST-tagged Ctbp2; source: E. coli BL21 DE3 pLysS, purified (glutathione Sepharose 4B)

[1] = target: the molecule itself; assay: pull-down; 1 ug GST-tagged and 1 ug His6-tagged recombinant Ctbp2, pulled down with GSH beads; 25 mM Tris-Cl pH 7.5, 0.1% NP-40, 150 mM NaCl, NADH, BSA, 10% glycerol, 4 C; for the phosphorylated form after in vitro phosphorylation with HA-Chk2

T1 sequence (P56546 whole entry, the tested form may be a part): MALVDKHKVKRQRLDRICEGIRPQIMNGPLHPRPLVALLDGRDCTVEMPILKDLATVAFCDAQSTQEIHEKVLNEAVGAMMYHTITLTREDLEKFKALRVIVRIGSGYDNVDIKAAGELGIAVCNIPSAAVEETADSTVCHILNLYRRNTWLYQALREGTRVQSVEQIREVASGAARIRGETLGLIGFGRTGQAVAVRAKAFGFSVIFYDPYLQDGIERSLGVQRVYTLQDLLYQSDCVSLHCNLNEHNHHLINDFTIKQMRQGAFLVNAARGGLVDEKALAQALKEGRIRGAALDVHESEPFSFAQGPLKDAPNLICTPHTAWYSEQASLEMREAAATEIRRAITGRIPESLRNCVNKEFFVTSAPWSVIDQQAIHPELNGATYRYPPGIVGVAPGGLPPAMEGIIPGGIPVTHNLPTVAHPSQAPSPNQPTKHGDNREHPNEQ

binding result (GST-CTBP2): binds
B1: FLAG-Suz12 1–138 (recombinant truncated Suz12, N-terminal region) (domain or fragment, human, UniProt Q15022 1-138, looked up)
chain: MAPQKHGGGGGGGSGPSAGSGGGGFGGSAAVAAATASGGKSGGGSCGGGGSYSASSSSSAAAAAGAAVLPVKKPKMEHVQADHELFLQAFEKPTQIYRFLRTRNLIAPIFLHRTLTYMSHRNSRTNIKRKTFKVDDML
notes: the methods call the cloned PRC2 components human

B2: GST- or His6-tagged recombinant CTBP2, wild type (the two copies of the in vitro self-binding assay) (natural protein)
chain: not shown
notes: Two differently tagged copies of one protein; each copy carries one tag; The same constructs stand singly as m31 (His6) and m33 (GST); also called recombinant wild-type Ctbp2; source: E. coli BL21 DE3 pLysS, purified (glutathione Sepharose 4B or Ni-NTA agarose)
binding result [1]: binds
